What was measured:
[1] = molecular target: T1, GST-PCNA (UniProt P12004 1-261); assay: ITC
[2] = molecular target: T1, GST-PCNA; assay: ITC; remark: listed apart in the source

T1 sequence (P12004 whole entry): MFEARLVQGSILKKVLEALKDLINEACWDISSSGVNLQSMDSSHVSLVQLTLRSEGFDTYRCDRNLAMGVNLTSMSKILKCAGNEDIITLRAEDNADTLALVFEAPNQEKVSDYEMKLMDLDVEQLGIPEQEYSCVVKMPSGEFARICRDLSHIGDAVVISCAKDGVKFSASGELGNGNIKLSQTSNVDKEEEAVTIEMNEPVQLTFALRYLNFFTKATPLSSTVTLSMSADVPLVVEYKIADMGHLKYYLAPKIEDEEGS

Kd [1]: 1330 nM
Ka [2]: 1.16e+06 M⁻¹
Binder: AQDFKTDLR [H3K79me0 peptide (amino acids H3 75-83)]
